In PMC9890572 one finds other data, which are given here for 1 substance.

Values joined by “and” are separate entries in the source; they are usually repeats but may differ in a detail not shown here. Equal values may be shown once.

The test has as its target smBiT–β-arrestin2 (UniProt P32121). Put plainly: split reporter.
Sequence of UniProt P32121 (P32121 whole entry): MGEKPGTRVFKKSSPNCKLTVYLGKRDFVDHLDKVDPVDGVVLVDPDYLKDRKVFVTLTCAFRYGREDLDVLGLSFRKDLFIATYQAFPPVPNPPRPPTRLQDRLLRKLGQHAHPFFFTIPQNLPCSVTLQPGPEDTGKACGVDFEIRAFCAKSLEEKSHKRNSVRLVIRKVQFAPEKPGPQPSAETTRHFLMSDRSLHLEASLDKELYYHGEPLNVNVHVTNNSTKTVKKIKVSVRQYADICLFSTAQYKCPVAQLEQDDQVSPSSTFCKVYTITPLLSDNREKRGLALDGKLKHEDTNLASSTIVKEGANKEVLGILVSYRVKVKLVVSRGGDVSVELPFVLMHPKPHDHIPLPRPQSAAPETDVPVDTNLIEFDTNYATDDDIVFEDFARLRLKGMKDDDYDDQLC

Turning to “Gαi-LgBiT (from UniProt P63096 1-354) (natural protein)”, the other was -7.6 and -5.9.
